# Experimental data published in publication PMC11829017.
# How the values were obtained:
# [1] = target: E. coli ρ G150D with the sensor cysteines C84/C405 (X1), untagged (E. coli MG1655) (UniProt P0AG30); test: cross-linking; BMOE (0.5 mM) crosslinking of 1 μM purified ρ in PN23 buffer with 2 mM ADP, 10 min at room temperature; LDS-PAGE
# [2] = target: E. coli ρ G150D with the sensor cysteines C84/C405 (X1), untagged (E. coli MG1655) (UniProt P0AG30); test: cross-linking; BMOE (0.5 mM) crosslinking of 1 μM purified untagged ρ in PN23 buffer with ppGpp or pppGpp; LDS-PAGE
# [3] = target: E. coli ρ G150D with the sensor cysteines C84/C405 (X1), untagged (E. coli MG1655) (UniProt P0AG30); test: cross-linking; BMOE (0.5 mM) crosslinking of 1 μM purified ρ in PN23 buffer without nucleotide; LDS-PAGE
substance,measurement,setting,value
"E. coli ρ G150D with the sensor cysteines C84/C405 (X1), untagged (from UniProt P0AG30 1-419) (enzyme)",percent of ρ in the filament fraction,[1],56%
same,stoichiometry N,[2],12
same,percent of ρ in the filament fraction,[3],18%
